Data set [1] concerns the target KorB (plasmid RK2, expressed in Escherichia coli) (UniProt P07674). In words: BLI. To be noted: BLI and C-trap buffers not given in the material, crystals 10 mM Tris-HCl, 150 mM NaCl pH 8.0 then 1.95 M ammonium sulfate, 0.1 M NaOAc pH 4.6, Eσ70 binding ….
The target of data set [2] is T1, KorB (Escherichia coli, UniProt P07674). Put plainly: ITC (weak, affinity could not be fitted). The format is binding. Also noted: C-terminally His-tagged KorB (WT).
A further data set concerns the target T2, Noc (Bacillus subtilis, UniProt P37524).
T2 sequence (P37524 1-283): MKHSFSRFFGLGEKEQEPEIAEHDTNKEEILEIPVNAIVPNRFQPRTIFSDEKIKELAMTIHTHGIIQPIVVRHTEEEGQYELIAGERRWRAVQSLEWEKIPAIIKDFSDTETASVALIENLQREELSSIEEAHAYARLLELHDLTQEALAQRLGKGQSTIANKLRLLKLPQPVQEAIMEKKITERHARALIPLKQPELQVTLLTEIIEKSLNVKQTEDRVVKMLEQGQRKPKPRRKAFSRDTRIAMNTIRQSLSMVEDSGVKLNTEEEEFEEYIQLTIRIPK
Put plainly: CTP hydrolysis rate by phosphate release assay (EnzChek), […] CTP. In kind it is biochemical.

Data set [3] has as its target T1, KorB. Put plainly: ITC; also OB DNA-stimulated CTPase assay. In kind it is binding. Also noted: C-terminally His-tagged KorB (WT).
For the next data set, the target named is T3, ParB (Caulobacter vibrioides, UniProt P0CAV8).
T3 sequence (P0CAV8 1-304): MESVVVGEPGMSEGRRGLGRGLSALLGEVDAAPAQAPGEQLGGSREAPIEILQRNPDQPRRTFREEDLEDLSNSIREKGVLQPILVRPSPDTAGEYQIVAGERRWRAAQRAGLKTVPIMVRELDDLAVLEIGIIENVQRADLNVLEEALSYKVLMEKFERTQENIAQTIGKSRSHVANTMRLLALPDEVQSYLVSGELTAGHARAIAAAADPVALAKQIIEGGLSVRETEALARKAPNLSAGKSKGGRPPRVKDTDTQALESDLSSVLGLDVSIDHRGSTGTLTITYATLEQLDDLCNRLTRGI
Put plainly: CTP hydrolysis rate by phosphate release assay (EnzChek), […] CTP. The format is biochemical.

The target of data set [4] is T1, KorB. In words: ITC; […] Å co-crystal structure (ligand modelled as CTP, sulfur position not assignable). The format is binding. Details: ITC: C-terminally His-tagged KorB; crystal: KorB∆N30∆CTD (lacks the 30 N-terminal amino acids, the linker and the CTD).
The target in data set [5] is KorB (wild type), C-terminally His-tagged (plasmid RK2 (Escherichia coli)) (UniProt P07674).
Data set [6] concerns AF647-KorA (Y84A) (plasmid RK2). Put plainly: optical tweezers residence time. To be noted: unlabelled KorB, 2 mM CTP; BLI and C-trap buffers not given in the material; crystals 10 mM Tris-HCl, 150 mM NaCl pH 8.0 then 1.95 M ammonium sulfate, 0.1 M NaOAc pH 4.6; Eσ70 binding ….
The next data set relates to AF647-KorA (plasmid RK2). In words: optical tweezers residence time. To be noted: BLI and C-trap buffers not given in the material, crystals 10 mM Tris-HCl, 150 mM NaCl pH 8.0 then 1.95 M ammonium sulfate, 0.1 M NaOAc pH 4.6, Eσ70 binding ….
Data set [7] concerns the molecule itself. In words: cross-linking; BMOE (1 mM) cysteine cross-linking of 8 µM KorB variant dimer ± 1 mM CTP or CTPγS ± 24 bp OB or scrambled DNA; 10 mM Tris–HCl pH 7.4, 100 mM NaCl, 1 mM MgCl2; room temperature; SDS–PAGE, band quantification.
Data set [8] deals with the molecule itself. In words: crystal structure; KorBΔN30ΔCTD–KorA complex with 14 bp OA DNA duplex, no CTPγS added; 2.7 Å; two KorA, two KorB subunits and one DNA duplex in the asymmetric unit.
Data set [9] addresses T4, KorB (wild type), C-terminally His-tagged (plasmid RK2 (Escherichia coli), UniProt P07674 1-358).
T4 sequence (looked up): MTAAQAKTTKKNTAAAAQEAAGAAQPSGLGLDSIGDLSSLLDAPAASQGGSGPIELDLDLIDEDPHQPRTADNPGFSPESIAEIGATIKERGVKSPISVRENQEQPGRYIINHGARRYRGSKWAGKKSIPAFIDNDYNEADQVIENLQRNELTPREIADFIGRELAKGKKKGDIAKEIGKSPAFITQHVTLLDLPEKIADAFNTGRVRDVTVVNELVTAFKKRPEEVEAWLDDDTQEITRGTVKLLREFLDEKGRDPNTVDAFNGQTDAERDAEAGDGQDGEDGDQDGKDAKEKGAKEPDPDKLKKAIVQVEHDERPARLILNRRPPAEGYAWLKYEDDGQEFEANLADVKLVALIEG
Put plainly: cell-based or functional assay.

The target in data set [10] is T5, KorB (wild type), C-terminally His-tagged (plasmid RK2 (Escherichia coli), UniProt P07674 1-358).
T5 chain: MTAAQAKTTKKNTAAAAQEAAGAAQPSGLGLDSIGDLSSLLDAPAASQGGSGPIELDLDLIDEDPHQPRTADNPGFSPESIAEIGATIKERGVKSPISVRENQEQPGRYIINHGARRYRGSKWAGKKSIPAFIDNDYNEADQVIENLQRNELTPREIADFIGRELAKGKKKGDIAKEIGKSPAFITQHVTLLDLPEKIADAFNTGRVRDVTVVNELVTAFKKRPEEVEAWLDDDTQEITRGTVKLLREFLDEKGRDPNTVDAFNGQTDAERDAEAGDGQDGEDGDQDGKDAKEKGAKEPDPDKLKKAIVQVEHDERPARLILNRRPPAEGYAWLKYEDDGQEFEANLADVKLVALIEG
In words: ITC.

Another data set concerns the target KorBΔN30ΔCTD;KorA (plasmid RK2;plasmid RK2, UniProt P07674;P03052 31-252;1-101, |). In words: X-ray crystallography; no CTPγS added; sulfates; BLI and C-trap buffers not given in the material; crystals 10 mM Tris-HCl, 150 mM NaCl pH 8.0 then 1.95 M ammonium sulfate, 0.1 M NaOAc pH 4.6; Eσ70 binding and. To be noted: protein: recombinant;recombinant; tags: His-tagged;C-terminal His6 (pET21b); chain copies: 2;2; blunt, self-complementary, 2 copies.

The target in a further data set is E. coli RNAP core;σ70 (Escherichia coli;Escherichia coli, UniProt P0A7Z4;P0A8V2;P0A8T7;P0A800;P00579 1-329;1-1342;1-1407;2-91;1-613, |). In words: native MS; no KorA/KorB; BLI and C-trap buffers not given in the material; crystals 10 mM Tris-HCl, 150 mM NaCl pH 8.0 then 1.95 M ammonium sulfate, 0.1 M NaOAc pH 4.6; Eσ70 binding and. To be noted: protein: recombinant;recombinant; tags: His10-PPX;His-SUMO, cleaved; chain copies: 2;1;1;1;1; blunt.

Regarding 40-bp OB DNA, the Kd worked out at 60 µM in data set [1] (1 mM CTP) and 0.14 µM in data set [1] (no CTP).

For the molecule `Nc1ccn([C@@H]2O[C@H](COP(=O)(O)OP(=O)(O)O)[C@@H](O)[C@H]2O)c(=O)n1` [CDP], the “ITC (weak, affinity could not be fitted)” value on KorB [2] was “KorB binding to CDP was qualitatively much weaker than to CTP, but the data precluded the estimation”.

As for `Nc1ccn([C@@H]2O[C@H](COP(=O)(O)OP(=O)(O)OP(=O)(O)O)[C@@H](O)[C@H]2O)c(=O)n1` [CTP], the “CTP hydrolysis rate by phosphate release assay (EnzChek), 1 mM CTP” value at Noc was “CTP hydrolysis rates of KorB, C. crescentus ParB, and B. subtilis Noc were measured by continuous detection”; at ParB, “CTP hydrolysis rates of KorB, C. crescentus ParB, and B. subtilis Noc were measured by continuous detection”. On KorB [3], the Kd came out at 4.5 ± 0.5 µM.

The molecule `Nc1ccn([C@@H]2O[C@H](COP(=O)(O)OP(=O)(O)OP(O)(O)=S)[C@@H](O)[C@H]2O)c(=O)n1` [CTPɣS, cytidine-5′-(3-thiotriphosphate)] came in with a Kd at KorB [4] of 0.4 ± 0.1 µM.

Turning to “AF647–KorA: KorA with an extra C-terminal cysteine, C-terminally His-tagged, labelled with Alexa Fluor 647 (from UniProt P03052) (natural protein)”, in data set [5], the change of the residence time of AF647–KorA at OA on DNA (optical tweezers) with unlabelled KorB and CTP, against KorA with or without apo-KorB came to 4.5 fold.

Turning to “C-trap DNA 8xOB + 1xOA (22,394 bp; also ligated as 44.8 kb tandem)”, the binding in data set [6] is 3.72 s; in the data set with AF647-KorA (plasmid RK2) (unlabelled KorB (F249A), 2 mM CTP), 3.07 s; in the data set on AF647-KorA (plasmid RK2) (unlabelled KorB, 2 mM CTP) it was 10.1 s; in the data set on AF647-KorA (plasmid RK2) (unlabelled KorB, no CTP), 2.61 s.

B1: KorB (K351C), C-terminally His-tagged (natural protein)
chain: MTAAQAKTTKKNTAAAAQEAAGAAQPSGLGLDSIGDLSSLLDAPAASQGGSGPIELDLDLIDEDPHQPRTADNPGFSPESIAEIGATIKERGVKSPISVRENQEQPGRYIINHGARRYRGSKWAGKKSIPAFIDNDYNEADQVIENLQRNELTPREIADFIGRELAKGKKKGDIAKEIGKSPAFITQHVTLLDLPEKIADAFNTGRVRDVTVVNELVTAFKKRPEEVEAWLDDDTQEITRGTVKLLREFLDEKGRDPNTVDAFNGQTDAERDAEAGDGQDGEDGDQDGKDAKEKGAKEPDPDKLKKAIVQVEHDERPARLILNRRPPAEGYAWLKYEDDGQEFEANLADVCLVALIEG
As to B1, the binding result in data set [7] is reported as “binds”.

B2: KorA (wild type), C-terminally His-tagged (natural protein, plasmid RK2 (Escherichia coli))
chain: MKKRLTESQFQEAIQGLEVGQQTIEIARGVLVDGKPQATFATSLGLTRGAVSQAVHRVWAAFEDKNLPEGYARVTAVLPEHQAYIVRKWEADAKKKQETKR
notes: KorA of plasmid RK2, wild type; cysteine-less; expected monomer mass in nMS 12,825.6 Da; also called KorA (WT); KorA–(his)6; source: E. coli Rosetta (BL21 DE3) pLysS, pET21b, purified (HisTrap, Heparin, Superdex 75); not shown: His6, C-terminal, kept
In the case of B2, the binding result in [8] was “binds”. For the same molecule, in [9], the “fold of repression of a promoter–xylE reporter (OB 1.5 kb upstream of the core promoter, OA over the −10 element) in E. coli with WT KorA and WT KorB co-expressed” value is ~38000 fold. Moreover, the Kd in data set [10] came out at 4.2 µM.

B3: 14 bp OA (dsDNA)
DNA 1: TGTTTAGCTAAACA
DNA 2: TGTTTAGCTAAACA
As to B3, the binding result with KorBΔN30ΔCTD;KorA was “binds”.

B4: PkorA 100 bp (nMS) (dsDNA)
DNA 1: GTTACGCCAAGGACGAGTTTTAGCGGCTAAAGGTGTTGACGTGCGAGAAATGTTTAGCTAAACTTCTCTCATGTGCTGGCGGCTGTCACCGCTATGTTCA
DNA 2: TGAACATAGCGGTGACAGCCGCCAGCACATGAGAGAAGTTTAGCTAAACATTTCTCGCACGTCAACACCTTTAGCCGCTAAAACTCGTCCTTGGCGTAAC
In the case of B4, the binding result with E. coli RNAP core;σ70 is “binds”.
